Values belong to the molecule of their own block, whether it stands above or below them.
Target: ribosomes (membrane-bound, carrying nascent chains) (S. cerevisiae (endogenous in yeast microsomes))
Assay: co-sedimentation

percent of Sec61p bound to ribosomes (25°C; sec61-3 strain): 30%
Molecule: Sec61p of the sec61-3 mutant (from UniProt P32915 1-480) (natural protein)

percent of Sec61p bound to ribosomes (25°C; wild-type and srp101-47 strains): 30%
percent of Sec61p bound to ribosomes (srp101-47 strain, 3 h at 37°C): 20%
B1: Sec61p (natural protein)
chain: MSSNRVLDLFKPFESFLPEVIAPERKVPYNQKLIWTGVSLLIFLILGQIPLYGIVSSETSDPLYWLRAMLASNRGTLLELGVSPIITSSMIFQFLQGTQLLQIRPESKQDRELFQIAQKVCAIILILGQALVVVMTGNYGAPSDLGLPICLLLIFQLMFASLIVMLLDELLSKGYGLGSGISLFTATNIAEQIFWRAFAPTTVNSGRGKEFEGAVIAFFHLLAVRKDKKRALVEAFYRTNLPNMFQVLMTVAIFLFVLYLQGFRYELPIRSTKVRGQIGIYPIKLFYTSNTPIMLQSALTSNIFLISQILFQKYPTNPLIRLIGVWGIRPGTQGPQMALSGLAYYIQPLMSLSEALLDPIKTIVYITFVLGSCAVFSKTWIEISGTSPRDIAKQFKDQGMVINGKRETSIYRELKKIIPTAAAFGGATIGALSVGSDLLGTLGSGASILMATTTIYGYYEAAAKEGGFTKNLVPGFSDLM
